Laboratory results taken from PMC7863910, “A novel stress-inducible CmtR-ESX3-Zn^2+ regulatory pathway essential for survival of Mycobacterium bovis under oxidative stress” (The Journal of Biological Chemistry, 2020).

Molecular target: T1, Zur (zinc uptake repressor), purified (UniProt P9WN85 1-130)
T1 sequence: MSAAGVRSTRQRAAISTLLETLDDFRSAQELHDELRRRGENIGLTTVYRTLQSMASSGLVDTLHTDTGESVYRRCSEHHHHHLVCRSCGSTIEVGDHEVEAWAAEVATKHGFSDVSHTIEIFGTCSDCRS
Assay: SPR; Biacore 3000; […] (200 nM) […]; running buffer 10 mM HEPES pH 7.4, 150 mM NaCl, 50 mM EDTA, 0.005% surfactant P20
Settings: both partners purified

B1: CmtR, His-tagged, purified (natural protein)
chain: MLTCEMRESALARLGRALADPTRCRILVALLDGVCYPGQLAAHLGLTRSNVSNHLSCLRGCGLVVATYEGRQVRYALADSHLARALGELVQVVLAVDTDQPCVAERAASGEAVEMTGS
notes: also called His-tagged CmtR
Q: Does B1 bind?
A: Result: binds
